The values below come from the Human Domainome abundance scans (Beltran et al. 2025).

± gives the uncertainty stated by the source.

Sequences and labels used below:
B1: SAM and SH3 domain-containing protein 1, residues 630 to 700; numbered along this chain, O94885 (parent)
chain: GRPPQPKSVEDLLDRINLKEHMPTFLFNGYEDLDTFKLLEEEDLDELNIRDPEHRAVLLTAVELLQEYDSN

In this data set the parent is B1. Briefly: abundance fitness (aPCA) (normalised: wild type 0, dead -1); higher = more abundant; growth selection in yeast, the domain comes from the species named. The note with it: Homo sapiens.
As for GRPPQPKSVEDLLDRINLKEHMPTFLFNNYEDLDTFKLLEEEDLDELNIRDPEHRAVLLTAVELLQEYDSN [G29N], the abundance fitness is -0.762 ± 0.09.

As for GRPPVPKSVEDLLDRINLKEHMPTFLFNGYEDLDTFKLLEEEDLDELNIRDPEHRAVLLTAVELLQEYDSN [Q5V], the abundance fitness was -0.149 ± 0.048.

As for GRPPQPKSVEDLLDRINLKEHMPTFLFNGYEDLDTFKLLEEEDLDELNIRDPEHRAVLLTAVELLLEYDSN [Q66L], the abundance fitness is -0.351 ± 0.038.

As to GRPPQPKSVEDLLDRINLKEHMPTFLFNGYEDLDTFKLLEEEDLDELNIRDPEHRAVLLTAVELLGEYDSN [Q66G], the abundance fitness is -0.197 ± 0.052.

With GRPPQPKSVEDLLDRINLKEHMPTFLFNGYEDLDTFKLLEEEDLDELNIRDPEHRAVLLTAVELLAEYDSN [Q66A], the abundance fitness is -0.317 ± 0.048.

Regarding GRPPQPKSVEDLLDRINLKEHMPTFLFNGYEDLDTFKLLEEEDLDELNIRDPEHRAVLLTAVELLKEYDSN [Q66K], the abundance fitness is 0.267 ± 0.041.

For GRPPQPKSVEDLLDRINLKEHMPTFLFNGYEDLDTFKLLEEEDLDELNIRDPEHRAVCLTAVELLQEYDSN [L58C], the abundance fitness was -0.82 ± 0.1.

For GRPPQPKSVEDLLDRINLKEHMPTFLFNGYEDLDTFKLLEEEDLDELNIRDPEHRAVQLTAVELLQEYDSN [L58Q], the abundance fitness is -0.468 ± 0.073.

For the variant GRPPQPKSVEDLLDRINLKRHMPTFLFNGYEDLDTFKLLEEEDLDELNIRDPEHRAVLLTAVELLQEYDSN [E20R], the abundance fitness was -0.596 ± 0.064.

GRPPQPKSVEDLLDRINLKMHMPTFLFNGYEDLDTFKLLEEEDLDELNIRDPEHRAVLLTAVELLQEYDSN [E20M]: the abundance fitness is -0.212 ± 0.064.

As for GRPPQPKSVEDLLDRINLKIHMPTFLFNGYEDLDTFKLLEEEDLDELNIRDPEHRAVLLTAVELLQEYDSN [E20I], the abundance fitness is -0.244 ± 0.061.

For the variant GRPPQPKSVEDLLDRINLKEHMPTFLFNGYEDLDTFKLLEEERLDELNIRDPEHRAVLLTAVELLQEYDSN [D43R], the abundance fitness is -0.385 ± 0.043.

Consider GRPPQPKSVEDLLDRINLKEHMPTFLFNGYEDLDTFKLLEEEQLDELNIRDPEHRAVLLTAVELLQEYDSN [D43Q], for which the abundance fitness is -0.142 ± 0.041.

In the case of GRPPQPKSVEDLLDRINLKEHMPTFLFNGYEDLDTFKLLEEEMLDELNIRDPEHRAVLLTAVELLQEYDSN [D43M], the abundance fitness is -0.594 ± 0.056.

With GRPPQPKSVEDLLDRINLKEHMPTFLFNGYEDLDTFKLLEEECLDELNIRDPEHRAVLLTAVELLQEYDSN [D43C], the abundance fitness is -0.713 ± 0.079.

Take GRPPQPKSDEDLLDRINLKEHMPTFLFNGYEDLDTFKLLEEEDLDELNIRDPEHRAVLLTAVELLQEYDSN [V9D]: the abundance fitness is -0.736 ± 0.089.

Consider GRAPQPKSVEDLLDRINLKEHMPTFLFNGYEDLDTFKLLEEEDLDELNIRDPEHRAVLLTAVELLQEYDSN [P3A], for which the abundance fitness is -0.115 ± 0.043.

As for GRPPQGKSVEDLLDRINLKEHMPTFLFNGYEDLDTFKLLEEEDLDELNIRDPEHRAVLLTAVELLQEYDSN [P6G], the abundance fitness was -0.655 ± 0.061.

GRPPQWKSVEDLLDRINLKEHMPTFLFNGYEDLDTFKLLEEEDLDELNIRDPEHRAVLLTAVELLQEYDSN [P6W]: the abundance fitness is -0.092 ± 0.052.

Regarding GRPPQPKSVEDLLDRINLKEHMPTFLFGGYEDLDTFKLLEEEDLDELNIRDPEHRAVLLTAVELLQEYDSN [N28G], the abundance fitness is -0.157 ± 0.043.

For GRPPQPKSVEDLLDRINLKEHMPTFLFMGYEDLDTFKLLEEEDLDELNIRDPEHRAVLLTAVELLQEYDSN [N28M], the abundance fitness is -0.687 ± 0.081.

As for GRPPQPKSVEDLLDRINLKEHMPTFLFAGYEDLDTFKLLEEEDLDELNIRDPEHRAVLLTAVELLQEYDSN [N28A], the abundance fitness was -0.006 ± 0.04.

Take GRPPQPKSVEDLLDRINLKEHMPTFLFNGYEDLDTFKLLEEEDLDELNIRDPEHRAVLLTAVELKQEYDSN [L65K]: the abundance fitness is -0.812 ± 0.084.

Regarding GRPPQPHSVEDLLDRINLKEHMPTFLFNGYEDLDTFKLLEEEDLDELNIRDPEHRAVLLTAVELLQEYDSN [K7H], the abundance fitness is -0.308 ± 0.047.

On to GRPPQPTSVEDLLDRINLKEHMPTFLFNGYEDLDTFKLLEEEDLDELNIRDPEHRAVLLTAVELLQEYDSN [K7T], for which the abundance fitness stood at 0.095 ± 0.04.

For GRPPQPKSVEDLLDRINLKEHMPTFLFNGYEDLDTFKLLEEEDLDEVNIRDPEHRAVLLTAVELLQEYDSN [L47V], the abundance fitness was -0.781 ± 0.051.

For GRPPQPKSVEDLLDRINLKEHMPTFLFNGYEDLDTFKLLEEEDLDELNIRDPEHRAVLLTAVELLQEYYSN [D69Y], the abundance fitness is -0.644 ± 0.066.

Turning to GRPPQPKSVEDLLDRINLKEHMPTFLFNGYEDLDTFKLLEESDLDELNIRDPEHRAVLLTAVELLQEYDSN [E42S], the abundance fitness is 0.102 ± 0.034.

For GRPPQPKSVMDLLDRINLKEHMPTFLFNGYEDLDTFKLLEEEDLDELNIRDPEHRAVLLTAVELLQEYDSN [E10M], the abundance fitness is -0.398 ± 0.06.

GRPPQPKSVEDLLDRINLKEHMPTFLFNGYECLDTFKLLEEEDLDELNIRDPEHRAVLLTAVELLQEYDSN [D32C]: the abundance fitness is -0.292 ± 0.055.

For the variant GRPPQPKSVEDLLDRINLKEHMPTFLFNGYEDLDTFKLLEEEDLDELNIRDPEHRAVLFTAVELLQEYDSN [L59F], the abundance fitness was -0.792 ± 0.07.

Regarding GRPPQPKSVEDLLDRINLKEHMPTFLFNGYEDLDTFKLLEEEDLDELNIRDPEIRAVLLTAVELLQEYDSN [H54I], the abundance fitness was -0.458 ± 0.054.

For GRPPQPKSVEDLLDRINLKEFMPTFLFNGYEDLDTFKLLEEEDLDELNIRDPEHRAVLLTAVELLQEYDSN [H21F], the abundance fitness is -0.134 ± 0.046.

Consider ERPPQPKSVEDLLDRINLKEHMPTFLFNGYEDLDTFKLLEEEDLDELNIRDPEHRAVLLTAVELLQEYDSN [G1E], for which the abundance fitness worked out at 0.166 ± 0.074.

On to GRPPQPKSVEDLLDRINLKEHMPTFLFNGYEDLDTFKLLEEEDLDELNIRDPEHRAVLLTAVELLQPYDSN [E67P], for which the abundance fitness is -0.457 ± 0.049.

In the case of GRPPQPKSVEDLLDRINLKEHMPTFLFNGYEDLDTFKLLEEEDLDELNIRDLEHRAVLLTAVELLQEYDSN [P52L], the abundance fitness is -0.61 ± 0.042.

GRPPQPKSVEDLLDRINLKEHMPTFLFNGYEDLDTFKLLEEEDLDELNIRDTEHRAVLLTAVELLQEYDSN [P52T]: the abundance fitness was -0.437 ± 0.045.

For the variant GRPPQPKSVEDLLDRINLKEHMPTFLFNGYEDLDTFKLLEEEDLDELNIRDPNHRAVLLTAVELLQEYDSN [E53N], the abundance fitness was -0.146 ± 0.05.
